Positions count from the first letter of the chain named. Names may count otherwise.
B1: MET (protein)
chain: KKRKQIKDLGSELVRYDARVHTPHLDRLVSARSVSPTTEMVSNESVDYRATFPEDQFPNSSQNGSCRQVQYPLTDMSPILTSGDSDISSPLLQNTVHIDLSALNPELVQAVQHVVIGPSSLIVHFNEVIGRGHFGCVYHGTLLDNDGKKIHCAVKSLNRITDIGEVSQFLTEGIIMKDFSHPNVLSLLGICLRSEGSPLVVLPYMKHGDLRNFIRNETHNPTVKDLIGFGLQVAKGMKYLASKKFVHRDLAARNCMLDEKFTVKVADFGLARDMYDKEYYSVHNKTGAKLPVKWMALESLQTQKFTTKSDVWSFGVLLWELMTRGAPPYPDVNTFDITVYLLQGRRLLQPEYCPDPLYEVMLKCWHPKAEMRPSFSELVSRISAIFSTFIGEHYVHVNATYVNVKCVAPYPSLLSSEDNADDEVDTRPASFWETS
B2: PDGFRA (protein)
chain: KQKPRYEIRWRVIESISPDGHEYIYVDPMQLPYDSRWEFPRDGLVLGRVLGSGAFGKVVEGTAYGLSRSQPVMKVAVKMLKPTARSSEKQALMSELKIMTHLGPHLNIVNLLGACTKSGPIYIITEYCFYGDLVNYLHKNRDSFLSHHPEKPKKELDIFGLNPADESTRSYVILSFENNGDYMDMKQADTTQYVPMLERKEVSKYSDIQRSLYDRPASYKKKSMLDSEVKNLLSDDNSEGLTLLDLLSFTYQVARGMEFLASKNCVHRDLAARNVLLAQGKIVKICDFGLARDIMHDSNYVSKGSTFLPVKWMAPESIFDNLYTTLSDVWSYGILLWEIFSLGGTPYPGMMVDSTFYNKIKSGYRMAKPDHATSEVYEIMVKCWNSEPEKRPSFYHLSEIVENLLPGQYKKSYEKIHLDFLKSDHPAVARMRVDSDNAYIGVTYKNEEDKLKDWEGGLDEQRLSADSGYIIPLPDIDPVPEEEDLGKRNRHSSQTSEESAIETGSSSSTFIKREDETIEDIDMMDDIGIDSSDLVEDSFL
B3: PDGFRA, T674I (protein)
chain: B2 chain with T125I
B4: MUSK (protein)
chain: CCRRRKQWKNKKRESAAVTLTTLPSELLLDRLHPNPMYQRMPLLLNPKLLSLEYPRNNIEYVRDIGEGAFGRVFQARAPGLLPYEPFTMVAVKMLKEEASADMQADFQREAALMAEFDNPNIVKLLGVCAVGKPMCLLFEYMAYGDLNEFLRSMSPHTVCSLSHSDLSMRAQVSSPGPPPLSCAEQLCIARQVAAGMAYLSERKFVHRDLATRNCLVGENMVVKIADFGLSRNIYSADYYKANENDAIPIRWMPPESIFYNRYTTESDVWAYGVVLWEIFSYGLQPYYGMAHEEVIYYVRDGNILSCPENCPVELYNLMRLCWSKLPADRPSFTSIHRILERMCERAEGTVSV
B5: IGF1R (protein)
chain: RKRNNSRLGNGVLYASVNPEYFSAADVYVPDEWEVAREKITMSRELGQGSFGMVYEGVAKGVVKDEPETRVAIKTVNEAASMRERIEFLNEASVMKEFNCHHVVRLLGVVSQGQPTLVIMELMTRGDLKSYLRSLRPEMENNPVLAPPSLSKMIQMAGEIADGMAYLNANKFVHRDLAARNCMVAEDFTVKIGDFGMTRDIYETDYYRKGGKGLLPVRWMSPESLKDGVFTTYSDVWSFGVVLWEIATLAEQPYQGLSNEQVLRFVMEGGLLDKPDNCPDMLFELMRMCWQYNPKMRPSFLEIISSIKEEMEPGFREVSFYYSEENKLPEPEELDLEPENMESVPLDPSASSSSLPLPDRHSGHKAENGPGPGVLVLRASFDERQPYAHMNGGRKNERALPLPQSSTC
B6: FLT1(VEGFR1) (protein)
chain: RKMKRSSSEIKTDYLSIIMDPDEVPLDEQCERLPYDASKWEFARERLKLGKSLGRGAFGKVVQASAFGIKKSPTCRTVAVKMLKEGATASEYKALMTELKILTHIGHHLNVVNLLGACTKQGGPLMVIVEYCKYGNLSNYLKSKRDLFFLNKDAALHMEPKKEKMEPGLEQGKKPRLDSVTSSESFASSGFQEDKSLSDVEEEEDSDGFYKEPITMEDLISYSFQVARGMEFLSSRKCIHRDLAARNILLSENNVVKICDFGLARDIYKNPDYVRKGDTRLPLKWMAPESIFDKIYSTKSDVWSYGVLLWEIFSLGGSPYPGVQMDEDFCSRLREGMRMRAPEYSTPEIYQIMLDCWHRDPKERPRFAELVEKLGDLLQANVQQDGKDYIPINAILTGNSGFTYSTPAFSEDFFKESISAPKFNSGSSDDVRYVNAFKFMSLERIKTFEELLPNATSMFDDYQGDSSTLLASPMLKRFTWTDSKPKASLKIDLRVTSKSKESGLSDVSRPSFCHSSCGHVSEGKRRFTYDHAELERKIACCSPPPDYNSVVLYSTPPI
B7: MERTK (protein)
chain: KRVQETKFGNAFTEEDSELVVNYIAKKSFCRRAIELTLHSLGVSEELQNKLEDVVIDRNLLILGKILGEGEFGSVMEGNLKQEDGTSLKVAVKTMKLDNSSQREIEEFLSEAACMKDFSHPNVIRLLGVCIEMSSQGIPKPMVILPFMKYGDLHTYLLYSRLETGPKHIPLQTLLKFMVDIALGMEYLSNRNFLHRDLAARNCMLRDDMTVCVADFGLSKKIYSGDYYRQGRIAKMPVKWIAIESLADRVYTSKSDVWAFGVTMWEIATRGMTPYPGVQNHEMYDYLLHGHRLKQPEDCLDELYEIMYSCWRTDPLDRPTFSVLRLQLEKLLESLPDVRNQADVIYVNTQLLESSEGLAQGSTLAPLDLNIDPDSIIASCTPRAAISVVTAEVHDSKPHEGRYILNGGSEEWEDLTSAPSAAVTAEKNSVLPGERLVRNGVSWSHSSMLPLGSSLPDELLFADDSSEGSEVLM
B8: KIT (protein)
chain: TYKYLQKPMYEVQWKVVEEINGNNYVYIDPTQLPYDHKWEFPRNRLSFGKTLGAGAFGKVVEATAYGLIKSDAAMTVAVKMLKPSAHLTEREALMSELKVLSYLGNHMNIVNLLGACTIGGPTLVITEYCCYGDLLNFLRRKRDSFICSKQEDHAEAALYKNLLHSKESSCSDSTNEYMDMKPGVSYVVPTKADKRRSVRIGSYIERDVTPAIMEDDELALDLEDLLSFSYQVAKGMAFLASKNCIHRDLAARNILLTHGRITKICDFGLARDIKNDSNYVVKGNARLPVKWMAPESIFNCVYTFESDVWSYGIFLWELFSLGSSPYPGMPVDSKFYKMIKEGFRMLSPEHAPAEMYDIMKTCWDADPLKRPTFKQIVQLIEKQISESTNHIYSNLANCSPNRQKPVVDHSVRINSVGSTASSSQPLLVHDDV
B9: INSRR (protein)
chain: YGKKRNRTLYASVNPEYFSASDMYVPDEWEVPREQISIIRELGQGSFGMVYEGLARGLEAGEESTPVALKTVNELASPRECIEFLKEASVMKAFKCHHVVRLLGVVSQGQPTLVIMELMTRGDLKSHLRSLRPEAENNPGLPQPALGEMIQMAGEIADGMAYLAANKFVHRDLAARNCMVSQDFTVKIGDFGMTRDVYETDYYRKGGKGLLPVRWMAPESLKDGIFTTHSDVWSFGVVLWEIVTLAEQPYQGLSNEQVLKFVMDGGVLEELEGCPLQLQELMSRCWQPNPRLRPSFTHILDSIQEELRPSFRLLSFYYSPECRGARGSLPTTDAEPDSSPTPRDCSPQNGGPGH
B10: FLT3 (protein)
chain: HKYKKQFRYESQLQMVQVTGSSDNEYFYVDFREYEYDLKWEFPRENLEFGKVLGSGAFGKVMNATAYGISKTGVSIQVAVKMLKEKADSSEREALMSELKMMTQLGSHENIVNLLGACTLSGPIYLIFEYCCYGDLLNYLRSKREKFHRTWTEIFKEHNFSFYPTFQSHPNSSMPGSREVQIHPDSDQISGLHGNSFHSEDEIEYENQKRLEEEEDLNVLTFEDLLCFAYQVAKGMEFLEFKSCVHRDLAARNVLVTHGKVVKICDFGLARDIMSDSNYVVRGNARLPVKWMAPESLFEGIYTIKSDVWSYGILLWEIFSLGVNPYPGIPVDANFYKLIQNGFKMDQPFYATEEIYIIMQSCWAFDSRKRPSFPNLTSFLGCQLADAEEAMYQNVDGRVSECPHTYQNRRPFSREMDLGLLSPQAQVEDS

Biological target: T1, Bovine, dephosphorylated, Myelin Basic Protein (MBP), P02687
T1 chain: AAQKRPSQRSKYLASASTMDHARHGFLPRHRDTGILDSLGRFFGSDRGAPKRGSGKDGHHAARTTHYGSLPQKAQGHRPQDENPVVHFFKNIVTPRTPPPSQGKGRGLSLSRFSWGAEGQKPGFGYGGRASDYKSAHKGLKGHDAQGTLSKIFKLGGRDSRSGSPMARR

Protein | MBP Kinase Activity
B1 | Strong
B2 | Strong
B3 | Negative
B4 | Negative
B5 | Strong
B6 | Strong
B7 | Strong
B8 | Negative
B9 | Negative
B10 | Strong

From patent publication US20090099029
